Test results reported in patent publication EP4670784A1 (Eberhard Karls Universität Tübingen (Medizinische Fakultät), dated 2025).
Substitutions are numbered along the chain they refer to.

T1: Recombinant human G-CSFR (Glu25-Pro621, 381-GR/CF, R&D Systems) (human, UniProt Q99062 25-621)
T1 construct: range 25-621; Bought protein, amine-coupled to a CM5 chip for SPR; also called rhG-CSFR; granulocyte-colony stimulating factor receptor
T1 sequence (looked up): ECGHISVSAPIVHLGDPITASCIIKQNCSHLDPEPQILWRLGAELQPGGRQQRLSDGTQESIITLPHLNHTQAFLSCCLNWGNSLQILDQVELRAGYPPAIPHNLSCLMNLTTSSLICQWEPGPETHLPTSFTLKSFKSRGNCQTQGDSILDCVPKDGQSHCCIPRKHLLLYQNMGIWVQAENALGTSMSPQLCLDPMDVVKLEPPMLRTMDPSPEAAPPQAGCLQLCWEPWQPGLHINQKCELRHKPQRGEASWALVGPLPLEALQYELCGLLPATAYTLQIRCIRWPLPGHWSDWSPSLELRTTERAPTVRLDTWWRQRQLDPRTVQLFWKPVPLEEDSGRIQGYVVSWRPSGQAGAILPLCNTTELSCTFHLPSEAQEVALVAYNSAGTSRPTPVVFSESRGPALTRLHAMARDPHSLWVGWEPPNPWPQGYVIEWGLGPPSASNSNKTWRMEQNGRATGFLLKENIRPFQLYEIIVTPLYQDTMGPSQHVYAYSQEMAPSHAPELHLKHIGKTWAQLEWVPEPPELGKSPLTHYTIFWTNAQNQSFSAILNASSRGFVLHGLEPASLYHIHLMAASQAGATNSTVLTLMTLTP

T2: G-CSFR on NFS-60 cells (UniProt P40223 26-837, limits assumed)
T2 sequence (looked up): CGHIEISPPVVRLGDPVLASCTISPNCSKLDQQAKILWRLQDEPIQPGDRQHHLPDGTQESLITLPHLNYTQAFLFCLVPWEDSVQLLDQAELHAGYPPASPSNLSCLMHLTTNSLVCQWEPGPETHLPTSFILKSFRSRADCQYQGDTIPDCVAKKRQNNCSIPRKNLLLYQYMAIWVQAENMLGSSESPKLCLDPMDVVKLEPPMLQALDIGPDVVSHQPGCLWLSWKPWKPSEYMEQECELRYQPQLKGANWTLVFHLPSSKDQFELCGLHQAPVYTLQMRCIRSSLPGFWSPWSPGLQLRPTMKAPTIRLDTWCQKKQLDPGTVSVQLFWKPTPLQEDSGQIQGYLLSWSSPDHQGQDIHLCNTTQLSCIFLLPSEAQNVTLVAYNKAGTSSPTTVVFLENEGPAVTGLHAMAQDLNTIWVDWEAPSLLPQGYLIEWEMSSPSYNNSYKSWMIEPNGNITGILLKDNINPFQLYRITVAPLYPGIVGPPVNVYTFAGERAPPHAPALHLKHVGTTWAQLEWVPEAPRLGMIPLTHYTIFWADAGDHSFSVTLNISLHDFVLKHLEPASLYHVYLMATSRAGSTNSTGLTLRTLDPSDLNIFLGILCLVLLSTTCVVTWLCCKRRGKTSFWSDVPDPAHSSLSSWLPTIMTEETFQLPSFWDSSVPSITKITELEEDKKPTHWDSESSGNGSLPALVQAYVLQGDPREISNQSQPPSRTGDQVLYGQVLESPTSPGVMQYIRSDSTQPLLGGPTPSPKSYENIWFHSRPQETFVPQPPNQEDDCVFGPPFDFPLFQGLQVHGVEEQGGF

T3: G-CSFR on Kasumi-1 cells (UniProt Q99062 25-836, limits assumed)
T3 sequence (looked up): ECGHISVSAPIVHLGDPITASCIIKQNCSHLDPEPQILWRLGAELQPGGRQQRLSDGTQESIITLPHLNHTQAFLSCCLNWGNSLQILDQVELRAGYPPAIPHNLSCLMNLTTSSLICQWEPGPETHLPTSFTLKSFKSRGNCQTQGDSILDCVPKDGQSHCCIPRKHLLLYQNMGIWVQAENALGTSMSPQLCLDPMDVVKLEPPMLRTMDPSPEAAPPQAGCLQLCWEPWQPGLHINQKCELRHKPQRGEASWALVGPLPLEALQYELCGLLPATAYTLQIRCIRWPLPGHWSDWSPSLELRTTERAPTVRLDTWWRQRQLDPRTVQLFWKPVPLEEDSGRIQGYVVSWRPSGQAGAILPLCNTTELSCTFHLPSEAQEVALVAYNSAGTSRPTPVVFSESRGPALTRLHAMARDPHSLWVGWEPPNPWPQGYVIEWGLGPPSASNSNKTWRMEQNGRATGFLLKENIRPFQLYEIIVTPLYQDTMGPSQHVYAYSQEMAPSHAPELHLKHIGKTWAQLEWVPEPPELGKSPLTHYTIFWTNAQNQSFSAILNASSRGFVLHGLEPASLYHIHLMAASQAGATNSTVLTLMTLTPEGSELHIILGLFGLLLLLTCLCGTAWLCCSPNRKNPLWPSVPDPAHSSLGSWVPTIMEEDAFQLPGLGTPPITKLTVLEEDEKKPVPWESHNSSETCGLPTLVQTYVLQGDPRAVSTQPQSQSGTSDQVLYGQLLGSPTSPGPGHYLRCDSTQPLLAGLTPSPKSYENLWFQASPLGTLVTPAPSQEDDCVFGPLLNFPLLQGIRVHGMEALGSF

B1: bop3 (designed binder)
chain: MAALDAALYEIYDGLILYQQRLKSLEGISPELGPALDALRYDMADFAYLMAQAMEEGLDSLPQRFLWKALEMIRKIQADAAALREKLAATYKGNDRAAAAQSIARKLEEMLEKAYQILRHLAAA
notes: exclusively monomeric by SEC; Expressed from pET28a downstream of an N-terminal His-tag and thrombin cleavage site
B2: bv6 (designed binder)
chain: MAALAAALAEIYKGLAEYQARLKSLEGISPELGPALDALRYDMADFAILMAQAMEEGLDSLPQSFLRKALEMIRKIQADAAALREKLAATYKGNDRAAAAVEIAAQLEAFLEKAYQILRHLAAA
notes: Expressed from pET28a downstream of an N-terminal His-tag and thrombin cleavage site; Minorly dimeric in solution; also called starting template
B3: boa1 (designed binder)
chain: MAALAAALQSIYRKLAEMQAKLKSLEGISPELGPALDALRYDMADFAILMAQAMEEGLDSLPQSFLRKALEMIRKIQADAAALREKLAATYKGNDRADAAVYIAADLEILLEQAYQILRHLAAA
notes: Strictly monomeric in solution; Expressed from pET28a downstream of an N-terminal His-tag and thrombin cleavage site; also called bivalent-orientation antiparallel design 1
B4: bop1 (designed binder)
chain: B1 chain with Y48I, R64S, W67R
notes: De novo four-helix bundle, strictly monomeric in solution; Expressed from pET28a downstream of an N-terminal His-tag and thrombin cleavage site; also called bivalent-orientation parallel design 1
B5: bv21 (designed binder)
chain: B2 chain with Y41W, I48Y, S64R, R67W
notes: Expressed from pET28a with N-terminal His-tag and thrombin cleavage site; also called Boskar4 variant bv21
B6: bv22 (designed binder)
chain: B2 chain with I48Y, S64R, R67W
notes: Expressed from pET28a with N-terminal His-tag and thrombin cleavage site; also called Boskar4 variant bv22; second-generation variant
B7: bv23 (designed binder)
chain: B2 chain with I48Y, R67W, K75W
notes: Expressed from pET28a with N-terminal His-tag and thrombin cleavage site; also called Boskar4 variant bv23
B8: bv24 (designed binder)
chain: B2 chain with Y41W, I48C, S64R, R67W
notes: Expressed from pET28a with N-terminal His-tag and thrombin cleavage site; also called Boskar4 variant bv24
B9: bop2 (designed binder)
chain: B1 chain with E10D, R21Q, K23E, Y48I, R64S, W67R, E112R, I117D
notes: Strictly monomeric in solution; Expressed from pET28a downstream of an N-terminal His-tag and thrombin cleavage site; also called bivalent-orientation parallel design 2
B10: boa2 (designed binder)
chain: B3 chain with A20R, I103D, Q116E
notes: Strictly monomeric in solution; Expressed from pET28a downstream of an N-terminal His-tag and thrombin cleavage site; also called bivalent-orientation antiparallel design 2

Tests used:
[1] = target: T1, Recombinant human G-CSFR (Glu25-Pro621, …); test: SPR, twofold dilution series from 20 nM bop3 against chip-immobilized G-CSFR (Fig. 14B); reference not named
[2] = target: T1, Recombinant human G-CSFR (Glu25-Pro621, …); test: SPR, Biacore X100, multi-cycle kinetics, rhG-CSFR amine-coupled to CM5 chip, design as analyte, 1:1 model; series of Fig. 15C (from 20 nM)
G-CSFR on NFS-60 cells = target: T2, G-CSFR on NFS-60 cells; test: cell-based or functional assay
G-CSFR on Kasumi-1 cells = target: T3, G-CSFR on Kasumi-1 cells; test: cell-based or functional assay
[3] = target: T1, Recombinant human G-CSFR (Glu25-Pro621, …); test: SPR, Biacore X100, multi-cycle kinetics, rhG-CSFR amine-coupled to CM5 chip, design as analyte, 1:1 model; series of Fig. 13 (from 125 nM)
[4] = target: T1, Recombinant human G-CSFR (Glu25-Pro621, …); test: SPR, Biacore X100, multi-cycle kinetics, rhG-CSFR amine-coupled to CM5 chip, design as analyte, 1:1 model; series of Fig. 6 (from 20 nM)
[5] = target: T1, Recombinant human G-CSFR (Glu25-Pro621, …); test: not stated in the sentence (SPR values of Table 2 agree)
[6] = target: T1, Recombinant human G-CSFR (Glu25-Pro621, …); test: SPR, Biacore X100, multi-cycle kinetics, rhG-CSFR amine-coupled to CM5 chip, design as analyte, 1:1 model; series of Fig. 13 (from 31 nM)
[7] = target: T1, Recombinant human G-CSFR (Glu25-Pro621, …); test: SPR, rhG-CSFR on CM5 chip (Fig. 3E)

Binder	Kd [2] [nM]	koff [2] [s⁻¹]	kon [2] [M⁻¹ s⁻¹]	Kd [4] [nM]	koff [4] [s⁻¹]	kon [4] [M⁻¹ s⁻¹]	Kd [6] [nM]	koff [6] [s⁻¹]	kon [6] [M⁻¹ s⁻¹]	further results
B1	1.2	0.0018	1.5e+06	–	–	–	–	–	–	fold improvement in the receptor-binding affinity [1]: 10 fold; fold improvement in inhibitory potency compared to bop1, NFS-60 competitive inhibition assay (G-CSFR on NFS-60 cells): 3 fold; IC50, Kasumi-1 competitive inhibition assay, 400 pg/mL rhG-CSF (G-CSFR on Kasumi-1 cells): 1.97 nM
B2	–	–	–	4.3	0.0051	1.2e+06	–	–	–	Kd [3]: 14 nM; koff [3]: 0.0033 s⁻¹; kon [3]: 240000 M⁻¹ s⁻¹; fold tighter binding than Boskar4 [5]: 12 fold
B3	–	–	–	3.7	0.0024	690000	–	–	–	–
B4	3.2	0.0063	2e+06	2.7	0.0022	880000	–	–	–	–
B5	–	–	–	–	–	–	1.4	0.0011	820000	–
B6	1.3	0.0018	1.4e+06	–	–	–	1.1	0.00092	880000	–
B7	–	–	–	–	–	–	1.8	0.0015	860000	–
B8	–	–	–	–	–	–	1.7	0.0017	1e+06	–
B9	–	–	–	0.85	0.0013	1.9e+06	–	–	–	fold tighter binding than bv6 [7]: 4 fold
B10	–	–	–	1.1	0.0013	1.4e+06	–	–	–	fold tighter binding than bv6 [7]: 4 fold
